Results: patent US20250215083A1 (JIANGSU HENGRUI PHARMACEUTICALS, published 2025)
Substitutions are numbered along the chain they refer to. Read-outs that look alike come from different tables or passages of the source. Blank lines part the entries; values can stand above or below the binder they belong to.

What was measured:
[1] = target: T1, human GPRC5D (human, UniProt Q9NZD1 1-345); experiment: FACS, MM.1R cells
T1 construct: whole, on cells; also called membrane surface GPRC5D
Method: (§1) To test the capacity of the GPRC5D/CD3 bispecific antibodies of the present disclosure to bind to GPRC5D, a flow cytometry assay was used in this test example to measure the capacity of the GPRC5D/CD3 bispecific antibodies to bind to the human multiple myeloma cell line MM.1R (ATCC® CRL-2975), which expresses GPRC5D, and to a stably transfected cell strain CHOK1-cynoGPRC5D, which expresses cynomolgus monkey GPRC5D. The specific procedure was as follows: The cells described above were cultured in complete culture medium containing 10% FBS, incubated in a 37° C., 5% CO₂ incubator for 2 days, and added to a cell plate at 1×10⁵ cells/well. The plate was centrifuged at 300 g for 5 min and washed once with 1% BSA. The antibodies were serially diluted to 8 concentrations and added to the cell plate at 100 μL/well. The plate was incubated at 4° C. for 1 h and washed once with 1% BSA. […] The plate was washed three times with 1% BSA, PBS was added at 100 μL/well, and plate reading was performed.

[2] = target: T2, cynomolgus monkey GPRC5D (cynomolgus monkey); experiment: FACS, CHOK1-cynoGPRC5D cells
T2 construct: whole, on cells; also called CynoGPRC5D; cynoGPRC5D
Method: as §1

[3] = target: T1, human GPRC5D; experiment: FACS, MM.1R cells; remark: listed apart in the source
Method: as §1

[4] = target: T2, cynomolgus monkey GPRC5D; experiment: FACS, CHOK1-cynoGPRC5D cells; remark: listed apart in the source
Method: as §1

T1 sequence (Q9NZD1 whole entry): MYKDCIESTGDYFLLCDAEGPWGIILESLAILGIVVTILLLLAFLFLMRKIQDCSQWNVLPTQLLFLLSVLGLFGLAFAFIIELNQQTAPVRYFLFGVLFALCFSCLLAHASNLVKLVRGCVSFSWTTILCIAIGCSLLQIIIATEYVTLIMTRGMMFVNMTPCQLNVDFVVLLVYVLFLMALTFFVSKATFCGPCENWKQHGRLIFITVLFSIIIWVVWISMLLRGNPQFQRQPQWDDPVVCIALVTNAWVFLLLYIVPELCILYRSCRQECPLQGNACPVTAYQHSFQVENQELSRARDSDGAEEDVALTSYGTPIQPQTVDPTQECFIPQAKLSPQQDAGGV

EC50 [1]: 16.9 nM
Max [1]: 13800
EC50 [2]: 3.28 nM
Max [2]: 76600
B1: F4-1 (bispecific antibody)
heavy 1: not shown
light 1: not shown
heavy 2: EVQLVESGGGLVQPGGSLRLSCAASGFTFTDYYLSWVRQAPGKGLEWVAFIRNRAKGYTTEYSASVKGRFTISRDNAKNSLYLQMNSLRAEDTAVYYCARMGGKGWHFDVWGQGTTVTVSSASTKGPSVFPLAPSSKSTSGGTAALGCLVKDYFPEPVTVSWNSGALTSGVHTFPAVLQSSGLYSLSSVVTVPSSSLGTQTYICNVNHKPSNTKVDKKVEPKSCDKTHTCPPCPAPEAAGGPSVFLFPPKPKDTLMISRTPEVTCVVVDVSHEDPEVKFNWYVDGVEVHNAKTKPREEQYNSTYRVVSVLTVLHQDWLNGKEYKCKVSNKALPAPIEKTISKAKGQPREPQVCTLPPSRDELTKNQVSLSCAVKGFYPSDIAVEWESNGQPENNYKTTPPVLDSDGSFFLVSKLTVDKSRWQQGNVFSCSVMHEALHNHYTQKSLSLSPGK
light 2: DVVMTQSPLSLPVTPGEPASISCRSSQSIVHSNRNTYLEWYLQKPGQSPKLLIYKVSNRFSGVPDRFFGSGSGTDFTLKINRVEAEDVGVYYCFQGSHVPFTFGGGTKVEIKRTVAAPSVFIFPPSDEQLKSGTASVVCLLNNFYPREAKVQWKVDNALQSGNSQESVTEQDSKDSTYSLSSTLTLSKADYEKHKVYACEVTHQGLSSPVTKSFNRGEC
notes: formula 4

EC50 [1]: 19.2 nM
Max [1]: 13200
EC50 [2]: 4.01 nM
Max [2]: 83700
B2: F4-9 (bispecific antibody)
heavy 1: not shown
light 1: not shown
heavy 2: EVKLVESGGGLVQPGDFLSLSCAASGFTFTDYYLSWVRQPPGKALEWLAFIRNRAKGYTTEYSASVKGRFTISRDNSQSILYLQMNVLRAEDSATYYCARMGGKGWHFDVWGTGTTVTVSSASTKGPSVFPLAPSSKSTSGGTAALGCLVKDYFPEPVTVSWNSGALTSGVHTFPAVLQSSGLYSLSSVVTVPSSSLGTQTYICNVNHKPSNTKVDKKVEPKSCDKTHTCPPCPAPEAAGGPSVFLFPPKPKDTLMISRTPEVTCVVVDVSHEDPEVKFNWYVDGVEVHNAKTKPREEQYNSTYRVVSVLTVLHQDWLNGKEYKCKVSNKALPAPIEKTISKAKGQPREPQVCTLPPSRDELTKNQVSLSCAVKGFYPSDIAVEWESNGQPENNYKTTPPVLDSDGSFFLVSKLTVDKSRWQQGNVFSCSVMHEALHNHYTQKSLSLSPGK
light 2: B1 light 2 with V3L, T14S, P15L, E17D, P18Q, R34G, V88L, V109L
notes: formula 4 with Chi-45 variable regions

EC50 [3]: 7.56 nM
EC50 [4]: 3.95 nM
B3: F2-4 (bispecific antibody)
heavy 1: not shown
light 1: B1 light 2
heavy 2: not shown
light 2: not shown
notes: formula 2

EC50 [1]: 15.8 nM
Max [1]: 13700
EC50 [2]: 3.45 nM
Max [2]: 75200
B4: F4-2 (bispecific antibody)
heavy 1: not shown
light 1: not shown
heavy 2: B1 heavy 2 with A77S
light 2: B1 light 2
notes: formula 4

EC50 [1]: 16.1 nM
Max [1]: 13800
EC50 [2]: 3.83 nM
Max [2]: 76100
B5: F4-3 (bispecific antibody)
heavy 1: not shown
light 1: not shown
heavy 2: B1 heavy 2 with K78Q
light 2: B1 light 2
notes: formula 4

EC50 [1]: 0.31 nM
Max [1]: 1.82
EC50 [2]: 0.35 nM
Max [2]: 0.98
B6: F11-17 (bispecific antibody)
heavy: not shown
light: DVVMTQTPLSLSVSLGDQASISCRSSQSLVHSNGNTYLYWYLQKPGQSPKLLIYKVSNRFSGVPDRFSGSGSGTDFTLKISRVEAEDLGVYFCSQSTHVPPLTFGAGTKLELKRTVAAPSVFIFPPSDEQLKSGTASVVCLLNNFYPREAKVQWKVDNALQSGNSQESVTEQDSKDSTYSLSSTLTLSKADYEKHKVYACEVTHQGLSSPVTKSFNRGEC
notes: formula 11 with Chi-1 variable regions

EC50 [1]: 0.46 nM
Max [1]: 2100
EC50 [2]: 1.57 nM
Max [2]: 7940
B7: Chi-30 (antibody, human IgG1, kappa, L234A L235A, V domains shown)
VH: EVQLQQSGPELVKPGGSMKISCKASGYSFTGYTMNWVKQSHGKNPEWIGLINPYNGGTRNNQKFKDKATLTVDKSSSTAYMELLSLTSEDSAVYYCTRWGLRLAMDYWGQGTSVTVSS
VL: DIVMTQSQKFMSTSVGDRVSVTCKASQNVGSNVAWYQQKPGQSPKALIYSASYRYSGVPDRFTGSGSGTDFTLTISNVQSEDLAEYFCHQYNSYPPTFGAGTKLALKR

EC50 [1]: 2.81 nM
Max [1]: 5000
EC50 [2]: 3.96 nM
Max [2]: 9630
B8: Chi-24 (antibody, human IgG1, kappa, L234A L235A, V domains shown)
VH: QVQLQQSDAELVKPGGSVKISCKVSGYTFTDYPIHWMKQRPEQGLEWMGYVFPRDGSTKYNEKFRVKATWTADKSSSTVYMQLNSLTSDDSAVYFCSRELTAYWGQGTTLRVSS
VL: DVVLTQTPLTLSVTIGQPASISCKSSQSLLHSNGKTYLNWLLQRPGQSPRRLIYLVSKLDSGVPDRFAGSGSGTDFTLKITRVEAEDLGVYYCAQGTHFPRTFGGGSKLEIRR

EC50 [1]: 1.43 nM
Max [1]: 5210
EC50 [2]: 1.2 nM
Max [2]: 7880
B9: Chi-1 (antibody, human IgG1, kappa, L234A L235A, V domains shown)
VH: EVQLVESGGGLVKPGGSLKLSCAASGFTFSDYGMHWVRQAPEKGLEWVAFISSGSSTIYYADTVKGRFTISRDNAKNTLFLQMTSLRSEDTAIYYCTRLGPNWYFDVWGTGTTVTVSS
VL: DVVMTQTPLSLSVSLGDQASISCRSSQSLVHSNGNTYLYWYLQKPGQSPKLLIYKVSNRFSGVPDRFSGSGSGTDFTLKISRVEAEDLGVYFCSQSTHVPPLTFGAGTKLELKR

EC50 [2]: 0.06 nM
Max [2]: 0.26
B10: JNJ-64407564 (bispecific antibody, human IgG4 S228P, kappa, lambda, F234A L235A)
heavy 1: not shown
light 1: DIQMTQSPSSLSASVGDRVTITCKASQNVATHVGWYQQKPGKAPKRLIYSASYRYSGVPSRFSGSGSGTEFTLTISNLQPEDFATYYCQQYNRYPYTFGQGTKLEIKRTVAAPSVFIFPPSDEQLKSGTASVVCLLNNFYPREAKVQWKVDNALQSGNSQESVTEQDSKDSTYSLSSTLTLSKADYEKHKVYACEVTHQGLSSPVTKSFNRGEC
heavy 2: EVQLVESGGGLVQPGGSLRLSCAASGFTFNTYAMNWVRQAPGKGLEWVARIRSKYNNYATYYAASVKGRFTISRDDSKNSLYLQMNSLKTEDTAVYYCARHGNFGNSYVSWFAYWGQGTLVTVSSASTKGPSVFPLAPCSRSTSESTAALGCLVKDYFPEPVTVSWNSGALTSGVHTFPAVLQSSGLYSLSSVVTVPSSSLGTKTYTCNVDHKPSNTKVDKRVESKYGPPCPPCPAPEAAGGPSVFLFPPKPKDTLMISRTPEVTCVVVDVSQEDPEVQFNWYVDGVEVHNAKTKPREEQFNSTYRVVSVLTVLHQDWLNGKEYKCKVSNKGLPSSIEKTISKAKGQPREPQVYTLPPSQEEMTKNQVSLTCLVKGFYPSDIAVEWESNGQPENNYKTTPPVLDSDGSFLLYSKLTVDKSRWQEGNVFSCSVMHEALHNHYTQKSLSLSLGK
light 2: QTVVTQEPSLTVSPGGTVTLTCRSSTGAVTTSNYANWVQQKPGQAPRGLIGGTNKRAPGTPARFSGSLLGGKAALTLSGVQPEDEAEYYCALWYSNLWVFGGGTKLTVLGQPKAAPSVTLFPPSSEELQANKATLVCLISDFYPGAVTVAWKADSSPVKAGVETTTPSKQSNNKYAASSYLSLTPEQWKSHRSYSCQVTHEGSTVEKTVAPTECS
notes: anti-GPRC5D arm and anti-CD3E arm; also called positive control molecule

EC50 [1]: 1.89 nM
Max [1]: 2020
EC50 [3]: 1.89 nM
EC50 [4]: 0.76 nM
B11: F11-7 (bispecific antibody)
heavy: not shown
light: DVVLTQSPLSLPVTLGQPASISCKSSQSLLHSNGKTYLNWLLQRPGQSPRRLIYLVSKLDSGVPDRFSGSGSGTDFTLKISRVEAEDVGVYYCAQGTHFPRTFGGGTKVEIKRTVAAPSVFIFPPSDEQLKSGTASVVCLLNNFYPREAKVQWKVDNALQSGNSQESVTEQDSKDSTYSLSSTLTLSKADYEKHKVYACEVTHQGLSSPVTKSFNRGEC
notes: formula 11

EC50 [1]: 1.57 nM
Max [1]: 1300
B12: F11-18 (bispecific antibody)
heavy: not shown
light: B11 light with S7T, S10T, P12S, L15I, S68A, S81T, V88L, T107S, V109L, K112R
notes: formula 11 with Chi-24 variable regions

EC50 [1]: 2.16 nM
Max [1]: 1950
EC50 [3]: 2.16 nM
EC50 [4]: 0.17 nM
B13: F11-9 (bispecific antibody)
heavy: not shown
light: B11 light with N33T
notes: formula 11

EC50 [1]: 1.7 nM
Max [1]: 1560
EC50 [3]: 1.7 nM
EC50 [4]: 1.01 nM
B14: F11-11 (bispecific antibody)
heavy: not shown
light: B11 light with N33S
notes: formula 11

EC50 [1]: 2 nM
Max [1]: 1910
EC50 [3]: 2 nM
EC50 [4]: 0.36 nM
B15: F11-8 (bispecific antibody)
heavy: not shown
light: B11 light with N33S
notes: formula 11

EC50 [1]: 1.29 nM
Max [1]: 1470
EC50 [3]: 1.29 nM
EC50 [4]: 0.4 nM
B16: F11-10 (bispecific antibody)
heavy: not shown
light: B11 light
notes: formula 11

EC50 [1]: 1.64 nM
Max [1]: 1250
EC50 [2]: 1.91 nM
Max [2]: 14600
B17: Chi-45 (antibody, human IgG1, kappa, L234A L235A, V domains shown)
VH: EVKLVESGGGLVQPGDFLSLSCAASGFTFTDYYLSWVRQPPGKALEWLAFIRNRAKGYTTEYSASVKGRFTISRDNSQSILYLQMNVLRAEDSATYYCARMGGKGWHFDVWGTGTTVTVSS
VL: DVLMTQSPLSLPVSLGDQASISCRSSQSIVHSNGNTYLEWYLQKPGQSPKLLIYKVSNRFSGVPDRFFGSGSGTDFTLKINRVEAEDLGVYYCFQGSHVPFTFGGGTKLEIKR

EC50 [1]: 1.32 nM
Max [1]: 1140
EC50 [2]: 2.71 nM
Max [2]: 9790
B18: F11-19 (bispecific antibody)
heavy: not shown
light: DIVMTQSQKFMSTSVGDRVSVTCKASQNVGSNVAWYQQKPGQSPKALIYSASYRYSGVPDRFTGSGSGTDFTLTISNVQSEDLAEYFCHQYNSYPPTFGAGTKLALKRTVAAPSVFIFPPSDEQLKSGTASVVCLLNNFYPREAKVQWKVDNALQSGNSQESVTEQDSKDSTYSLSSTLTLSKADYEKHKVYACEVTHQGLSSPVTKSFNRGEC
notes: formula 11 with Chi-30 variable regions
